From publication PMC6382169, “Molecular features of steroid-binding antidins and their use for assaying serum progesterone” (PLoS ONE, 2019)
Changes are numbered by the printed parent chain. Names and notes keep the numbering of the source. Where two headings read alike, the source gives them in different places.

Tests used:
[1] = target: Avd; parameters: method as in PMID 17052607; conditions: read-out: Kd of Avd-HABA complex; cited from earlier work
[2] = target: the molecule itself; test: SEC; Superdex200 Increase 5/150GL, 50 mM sodium phosphate, 650 mM NaCl, pH 7, 0.1 ml/min, 20°C; molecular weight from a standard curve of elution volumes of markers
[3] = parameters: method as in PMID 26550684; conditions: fluorometry-based assay, non-conjugated ligand, earlier study; read-out: Kd for progesterone; cited from earlier work
[4] = Fluorometric assay: quenching of intrinsic protein fluorescence by unconjugated ligand; format: binding; conditions: 100 nM protein, pH 7, 25°C, read-out: Kd for progesterone
Method: The binding affinity of the unconjugated small molecules to antidins was determined utilizing the intrinsic fluorescence originating from the aromatic amino acid residues (mainly tryptophan and tyrosine) of Avd and the fluorescence quenching caused by ligand binding. In brief, 100 nM protein samples in 50 mM NaH2PO4/Na2HPO4, 650 mM NaCl, pH 7 were excited at 280 nm, and emission was collected at 350 nm using QuantaMaster Spectrofluorometer (Photon Technology International, Inc.) with 2 nm slits. The assay was performed in a quartz cuvette with stirring at 25°C. The ligand was added to the protein sample in small aliquots (6–50 000 nM) and the fluorescence intensity was monitored after a short incubation. The dissociation constant (Kd) was determined from the resulting quenching curve using GraphPad Prism (GraphPad Software, Inc.). The data were fitted to a quadratic equation [72] for tight binding interactions, which takes ligand depletion and nonspecific binding into account (described in detail in [38]) (Fig 6).

[5] = Differential scanning calorimetry, no ligand; format: physicochemical; conditions: DSC, absence of ligand, 6.4 μM protein, pH 7
Method: (§1) The thermal stability of the antidin sbAvd-7 in the presence and absence of ligands was analyzed using an automated VP-Capillary DSC System (Malvern, Microcal Inc.) essentially as described in [73]. Protein samples in the sodium phosphate buffer (50 mM, pH 7) containing 650 mM NaCl were degassed prior to the measurement. The protein concentration in the cell was 6.4 μM, and the molar concentration of the ligands (D-biotin (Biochemica, Fluka) and progesterone (Steraloids Inc., USA)) were three times higher (Fig 6).

[6] = Differential scanning calorimetry with progesterone; format: binding; conditions: DSC, ligand three times the protein concentration
Method: as §1

[7] = Differential scanning calorimetry with biotin; format: binding; conditions: DSC, ligand three times the protein concentration
Method: as §1

[8] = target: the molecule itself; test: crystal structure; co-crystallised with progesterone, sitting drop vapour diffusion, 21°C; 2.80 Å; two monomers in the asymmetric unit, tetrameric biological unit

Which Kd [1] does the source give for O=C(O)c1ccccc1N=Nc1ccc(O)cc1 [HABA, 2-(4’-hydroxybenzene)azobenzoic acid] here?
The Kd was roughly 6000 nM.

B1: sbAvd-7 antidin (engineered chicken avidin) (designed binder)
chain: ARKCSLTGKWTNRMNHNMTIGAVNSRGEFTGTYIASLNATSNEIKESPLHGTQNTINKRTQPTFGFTVNWKFSESTAVFTGQCFIDRNGKEVLKTMWLLRSSVNDIGDDWKATRVGINIFTRLRTQKE
notes: selected from the phage display library AvLib-4 (template sbAvd-1); Subcloned with the OmpA signal peptide and a C-terminal 6xHis-tag into pET101/D; source: E. coli BL21-AI or OverExpress C43(DE3), purified (Ni-NTA)
For B1, which “stoichiometry N” value [2] is on record?
The value was 4.

B2: sbAvd-4: antidin with RMNH at 13-16 and PYLS at positions 35-38; from AvLib-3 (protein, UniProt P02701 25-152, looked up, variant D13R L14M G15N S16H T35P A36Y V37L T38S)
Avidin: B1 chain with A35P, S36Y, N38S, A77T
Which Kd [3] does the source give for B2 here?
Its Kd is 135 nM.

B3: sbAvd-9: antidin with RMNH at 13-16, YYLP at 35-38 and T77A; from AvLib-4 (protein, UniProt P02701 25-152, looked up, variant D13R L14M G15N S16H T35Y A36Y V37L T38P T77A)
Avidin: B1 chain with A35Y, S36Y, N38P
Which Kd [4] does the source give for B3 here?
The Kd was 13 nM.

B4: sbAvd-7: antidin with RMNH at 13-16, ASLN at 35-38 and T77A; from AvLib-4, progesterone panning (protein)
chain: B1 chain
modifications: left off: 6xHis, C-terminal, state not stated
notes: antidin with RMNH at 13-16, ASLN at 35-38 and T77A; from AvLib-4, progesterone panning
Which results are given for B4?
Tm [5]: 85.84 °C; ΔTm with progesterone [6]: 10.23 °C; ΔTm with biotin [7]: 0.27 °C

B5: sbAvd-5: antidin with RMNH at 13-16 and VPHP at positions 35-38; from AvLib-3 (protein, UniProt P02701 25-152, looked up, variant D13R L14M G15N S16H T35V A36P V37H T38P)
Avidin: B1 chain with A35V, S36P, L37H, N38P, A77T
With B5 as the molecule, how does the Kd [3] read?
The Kd was 108 nM.

B6: sbAvd-2 (I117Y): sbAvd-2 with stabilizing mutation I117Y; co-crystallized with progesterone, PDB:5LUR (protein)
chain: B1 chain with S36T, L37V, A77T, I117Y
With B6 as the molecule, how does the Kd [3] read?
The Kd was 180 nM.

B7: sbAvd-8: antidin with RMNH at 13-16, Y33F, A36Y, V37S, T38Y and T77A; from AvLib-4 (protein, UniProt P02701 25-152, looked up, variant D13R L14M G15N S16H Y33F A36Y V37S T38Y T77A)
Avidin: B1 chain with Y33F, A35T, S36Y, L37S, N38Y
With B7 as the molecule, how does the Kd [4] read?
Its Kd is 11 nM.

B8: sbAvd-2: antidin with RMNH at 13-16 and ATVN at positions 35-38; from AvLib-3 (protein, UniProt P02701 25-152, looked up, variant D13R L14M G15N S16H T35A A36T T38N)
Avidin: B1 chain with S36T, L37V, A77T
Which Kd [3] does the source give for B8 here?
Its Kd is 111 nM.

B9: sbAvd-6: antidin with RMNH at 13-16 and VSSN at positions 35-38; from AvLib-3 (protein, UniProt P02701 25-152, looked up, variant D13R L14M G15N S16H T35V A36S V37S T38N)
Avidin: B1 chain with A35V, L37S, A77T
Which Kd [3] does the source give for B9 here?
Its Kd is 117 nM.

B10: sbAvd-2 (I117Y) antidin (engineered chicken avidin) (designed binder)
chain: B1 chain with S36T, L37V, A77T, I117Y
notes: position 37 stays V; Crystallised with progesterone; also called sbAvd-2 (I117Y) mutant
With B10 as the molecule, how does the “stoichiometry N” value [8] read?
The value was 4.

B11: hbAvd-4: antidin S16A, Y33F, T40P, F72A, S73Y, S75Y, N118A; from AvLib-5, hydrocortisone panning (protein, UniProt P02701 25-152, looked up, variant S16A Y33F T40P F72A S73Y S75Y N118A)
Avidin: ARKCSLTGKWTNDLGANMTIGAVNSRGEFTGTFITAVTAPSNEIKESPLHGTQNTINKRTQPTFGFTVNWKAYEYTTVFTGQCFIDRNGKEVLKTMWLLRSSVNDIGDDWKATRVGIAIFTRLRTQKE
Which Kd [4] does the source give for B11 here?
The Kd was 39 nM.
